From the supplement of paper PMC9170038

Test system: K4 kissing-loop RNA reporter
Assay: apparent KD of K4 kissing-loop reporter; higher = weaker reporter binding
Conditions: Eterna round: R107
Procedure: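 RNA-MaP round R107: designed RNA switches with theophylline, tryptophan, arginine or FMN aptamers are transcribed on-chip within common flanks. They are titrated with a labelled K4 kissing-loop RNA reporter in RNA-MaP buffer (100 mM Tris pH 7.5, 80 mM KCl, 4 mM MgCl2), without ligand or with the indicated ligand. Median apparent KD per design.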

[1] = input ligand: theophylline 20 uM
[2] = input ligand: tryptophan 2.4 mM
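Further: bound reporter read as fluorescence of individual clusters on recovered sequencing chips by microscopy, with normalized cluster intensities fitted with a binding model.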

Sequence | apparent KD of K4 kissing-loop reporter (input ligand: FMN 200 uM) [nM] | apparent KD of K4 kissing-loop reporter (input ligand: arginine 13.2 mM) [nM] | apparent KD of K4 kissing-loop reporter (input ligand: none) [nM] | apparent KD of K4 kissing-loop reporter [1] [nM] | apparent KD of K4 kissing-loop reporter [2] [nM]
UGGCGAGUGAUGUUCGUUGUUGUAGUGUGCCGAGGACCGGUACGGCCGCCACUCGGGUUGGUUGUUGUUGUUGUUGUUGUUGUUG [whbob_SS_tryp_A] | 127 | 110 | 112 | 119 | 76.1
UGGGUGUAGUGAUGUUAUAUAGAGAAUGAUACCAGCUUAGAGAGGAGCCCUUGGCAGCGUAGACGAGUAUCAUUGGAGGAGGAGG [#22 K4 Theophylline A Exclusion] | 714 | 924 | 965 | 724 | 647
UGUAAGCGCGUAGAUACCAGCAGACGAGUGAUGUUCAAAAGAUUAAGGAAAAGAAAGUAAUGCCCUUGGCAGCUAAUCAUAAGCG [whbob_Ex_Theo_B_sa92] | 243 | 460 | 466 | 517 | 295
UGUACCGAGUCAGGAUAUCAUAAUAAUCGAGUGAUGUUCGAAUAACGACUGACAAAGUCGGUCGAUUGAGAAGGGACUUGGUACU [FmnBS 7 #SwitchBubble #StaticStem] | 150 | 342 | 444 | 362 | 378
UGUACCGAGUCAGGAUAUGGCGUCGAAAGACGAAUCGUAGUGAUGUUACGGAUCUGCGAAAGCAGUCCAGAAGGGACUUGGUACU [FmnBS 26 G37+C49] | 125 | 172 | 163 | 155 | 182
UGUACCGAGUCAGGAUAUGGCGUCGAAAGACGAAUGCUAGUGAUGUUAGGGAUCUGCGAAAGCAGUCUAGAAGGGACUUGGUACU [FmnBS 26 G36+U68] | 359 | 361 | 471 | 483 | 525
UGUAUGGACUGAAGGAGCGGUAGAUAAACUGAGUGAUGUUCGGCAAAUAAAGGCGCAAGCCACCAGGUAGGUCGCAGUCCAUACU [KL-SSArg B1] | 289 | 182 | 235 | 236 | 205
UGUAUGGACUGAAGGAGCGGUAUAUAAACUGAGUGAUGUUCGGCAGAUAAAGGCGCAAGCCACCAGGUAGGUCGCAGUCCAUACU [KL-SSArg B2] | 453 | 207 | 381 | 390 | 342
UGUAUGUGAUUUGAUACCAGACCAGCUGGUGGAAUCUGAGUGAUGUUCAGGUAGGUUUGGGUCCCUUGGCAGCAAAUCGCAUACU [KL-SSTheoB27] | 203 | 145 | 182 | 181 | 170
UGUCAUUGGUCGGCCGCCACUAGAAGGUCAAAGACCAUGGAGUGAUGUUCUAAGACGAAAGUCACUAGGACCGGGACCGAUGACU [TrypBS 5 #SwitchBubble #K4Middle] | 1640 | 689 | 1450 | 918 | 575
UGUCAUUGGUCGGCCGCCACUCCAUAAAGAGUGAUGUUCUGAAAGACGGAUCGAAAGAUCUGUCGGAGGACCGGGACCGAUGACU [FiskerMod 3 - Jieux - Same State - Tryptophan B] | 1310 | 665 | 1540 | 896 | 237
UGUCAUUGGUCUGAUACCAGUUGGGACGAAUACGUCCAACUGGAGUGAUGUUCCUAAAACAACCCUUGGCAGCAGACCGAUGACU [TheoBS 13 #SwitchBubble 13 #StaticStem] | 870 | 782 | 1040 | 638 | 750
UGUCGAGUGAUGUUCGAUGUGGUGCAUUCAGAGGAUAUAGGGUGGGCUAGAAGGCUGAAAAGUGCUUCGAGUGAUGUUCGAAGAU [Exclusion FMN A GF8] | 70.6 | 117 | 144 | 132 | 110
UGUCUUUUUUUGAUGUUUUUUGUAUAAUGGCAGGAUAUCGUAGAGGCGAGAAGGGCUUUUAUGCGUUAUGAGUGAUGUUUGUAGG [vevvmullin] | 321 | 240 | 302 | 295 | 220
UGUGAGCUGUCGACAAAAGUCGACUAAAGCGAGGAUAUGACGAAAGUCAGAAGGCGUCAAUAAUGGAGUGAUGUUCCUGCUCACU [FmnA 9 G29] | 306 | 436 | 596 | 489 | 406
UGUGAUGAGUAGAGUGAUGUUUUGAAGGAUACCAGAGUGUUGUUAUUCCCUUGGCAGCUUGAGUGAUGUUUGAUGUUGUUGUAGU [zizmullin] | 303 | 213 | 248 | 246 | 196
UGUGGAGAAUAUGAUACCAGCAGUGAGAGAGAGGAAGUAUAGUGAUGUUAUAUGAGAGAAUGCCCUUGGCAGCAUAAGAAGAAGG [SSTheophylB.D] | 216 | 155 | 170 | 277 | 186
UGUGUACCGGGAAGGAGCGUGAAUGAGAAUGGAUAUAGUGAUGUUAUAUAUACGAACGAAUCGCAGGUAGGUCGCCCGGAUCCCU [SSArgB.Y] | 418 | 408 | 432 | 444 | 345
UGUGUUGUUUUGAUGUUUGGUGUUUGUUGGCAGGAUAUCGUAGAGGCGAGAAGGGCUUUGUUGCGGUAUGAGUGAUGUUUGUAGG [szzrmullin] | 349 | 174 | 295 | 244 | 255
UGUUAUGUAUCAGGAUAUUAGUGAUGUUUGUUUAUGUUAGUGAUGUUGAUAUUUGUUUUAUGUAUUUAAGAAGGGAUUGAGAAGU [ffcfxmullin] | 62.1 | 21.4 | 45.6 | 30.2 | 49.3
UGUUUUUACUGAAGGAGCGGCAAUUGAUACGUAGAUAUAGUGAUGUUAUAUAAGAUAGAGAGCCAGGUAGGUCGCAGAGUGUUUC [ExArgB.aA] | 250 | 195 | 194 | 194 | 172

Sequence | apparent KD of K4 kissing-loop reporter (input ligand: FMN 200 uM) [nM] | apparent KD of K4 kissing-loop reporter (input ligand: arginine 13.2 mM) [nM] | apparent KD of K4 kissing-loop reporter (input ligand: none) [nM] | apparent KD of K4 kissing-loop reporter [1] [nM] | apparent KD of K4 kissing-loop reporter [2] [nM]
UUAAAAUAUAUAAAUAAUAAGGGAAUUGAUACCAGACAGAAUUCUGUCCCUUGGCAGCAGUGAUGUUGUUGCAAUUUAAAUAAUU [AK1 Exc Theophylline A] | 104 | 148 | 112 | 136 | 85.7
UUAAUAAUUCAAGGAUAUGUUUUCUAUUUCGAGUGAUGUUCGGUAUUAAUAAAUUUAAUAGAUUAUACAGAAGGUGAUGGAUAGU [Cynwulf-mod#5] | 108 | 101 | 84.2 | 99.1 | 65.8
UUAGAGAUCUCAGGAUAUGAGUGAUGUUGGUGUCAAGAUCUGAGAUAGAAUUCUAUCUCAGAUCAAUCAGAAGGGAGAUCUCAUU [AK2.2 Exc FMN B] | 325 | 294 | 483 | 485 | 413
UUAGUCUAGAGAAGGAGCGAGUGAUGUUUGCUAAGAUCUAUGAUAUCAUAGAUCAAAUUUACUCAGGUAGGUCGCUCUAGACAUU [AK4 Exc Arginine B] | 294 | 53.1 | 182 | 165 | 137
UUAUAUAAGGGAAGGAGCGCGUGGGCGCAGUGAUGUUGCGCCCGACAUCACUUCAACUUAACGCAGGUAGGUCGCCCUUUUAAUA [Arginine B (Excl) V4] | 188 | 194 | 209 | 206 | 209
UUCAUCGUGGUUCACGGGUGGUAUGAAACGCGAGGACCGGUACGGCCGCCACUCGGUUCCGCUUGUUGAGUGAUGUUCAAUAUUU | 239 | 333 | 290 | 323 | 257
UUCUUGAUGGAAACAUCGAGGAUUACUGAUACCAGUAUCGAUAGAUACCCUUGGCAGCAGAAUCAGUAAUCACGAGUGAUGUUCG [Ex Theophylline A K4 6] | 662 | 497 | 841 | 583 | 460
UUGAGCCUGACGUAAGUCAGGCUCUGCGAGCGAGGACCGGUACGGCCGCCACUCGGUGCAGUGAUGUUGCAUGGCCGCAAGGCCG [#2 Exclusion - Tryptophan A Attempt #15 (HarryS)] | 278 | 257 | 363 | 259 | 339
UUGAUAUGAUAGUAUCCUGUUUGAUAAAGGCAGGAUAUCGAAAAUUCGAGAAGGGCCAUUAUAUGCAGUGAUGUUGCAAAUAAGU [Exclusion FMN A Gf 24] | 76.8 | 68.4 | 52.6 | 69 | 43.6
UUGGAAAUCAGAAGGAGCGUCUAAAAUAAGAGAACCAGUGAUGUUGGUUUUAUUUAAUGAAGACAGGUAGGUCGCUGAAUUUUUA [Same State Arginie B GF 19] | 100 | 95.2 | 99.3 | 96.1 | 94.9
UUGGAGUGAUGUUCCAUGUCUUGAGCCGAAGGAGCGCCUUUCUAGGCAGGUAGGUCGCGGCAGAAGGUACCAGUGAUGUUGGAAA [Same State Arginine A GF9] | 161 | 225 | 283 | 222 | 164
UUGUUUAACUGAAGGAGCGGCAAUUGAUACGUAGAUAUAGUGAUGUUAUAUAAGAUAGAGAGCCAGGUAGGUCGCAGAGGUGUUU [ExArgB.R] | 231 | 227 | 246 | 219 | 190
UUUAUGAUGUCGGCCGCCACUGGAUUAAUAUGUGUGUAAUCUAGUUCUGAGUGAUGUUUAGAGUCCAGGACCGGGACAUUUGUUA [#11 K4 Tryptophan B Exclusion] | 542 | 373 | 522 | 649 | 452
UUUAUUAAGACGGCCGCCACUGAAUUAGAGUGAUGUUCUAAAAUUACUAAAUUAAAUUUAUUCAACAGGACCGGGUCAAUUAUUA [JR_SSTryptoB_Sub010] | 399 | 405 | 461 | 432 | 513
UUUCUACCGGGAAGGAGCGUGAAUGAUAAUGGAUAUAGUGAUGUUAUAUAUACGAACGAAUCGCAGGUAGGUCGCCCGGAUGACU [SSArgB.T] | 586 | 503 | 724 | 550 | 486
UUUCUUUUAAUAACACUUUAUACAACUGAAGGAGCGACAAUAAAGUCAGGUAGGUCGCAGAAUUAAUGAGUGAUGUUCAUAUUUA [JR_ExcArginiA_Sub012] | 95.4 | 197 | 121 | 180 | 83
UUUGGAAGCGGUGUUGAUUAGGGAGCGGAAGGAGCGCCGAUUAUGGCAGGUAGGUCGCCGGAAUGUAGUGAUGUUGCAUAGAGGG [ExArgA.W] | 209 | 234 | 202 | 263 | 83.9
UUUGGAGUGGGAGGAUAUCCUAAUAUGGGUGAUGUUAGCGAUGUUGAAGGUGUAGUGAUGUUAUGCGGAGAAGGCCCACUGUAGA [BDazzled - #19 - Exc. FMN B] | 95 | 78.8 | 131 | 85.6 | 89.2
UUUGGUAUCUCGGCCGCCACUCGUGGGAAAUGGGCCUCAGGGAUAUAGUGAUGUUAUGUAAAGAAGAGGACCGGGAGAAGGAAGG [ExTryptoB.Dk] | 343 | 232 | 355 | 481 | 208
UUUGGUUUCUCGGCCGCCACUCGUUGUCUAUCGGCUUCAGGGAUAUAGUGAUGUUAUGUAUAGAAGAGGACCGGGAGAAGGUUUU [ExTryptoB.Dw] | 467 | 602 | 603 | 864 | 398
